In patent US20230416329A1 (INSTITUTE OF MATERIA MEDICA CHINESE ACADEMY OF MEDICAL …, published 2023):
Bridge positions count the residues as written; N and C are the ends. Square brackets hold non-standard residues; d marks the D form. Ends that are not written are not given here. Hyp = O=C(O)[C@@H]1C[C@@H](O)CN1; hCys = N[C@@H](CCS)C(=O)O; Nle = CCCC[C@H](N)C(=O)O

Legend:
bovine trypsin = bovine trypsin (bovine, UniProt P00760 24-246); experiment: trypsin inhibition, BApNA substrate
Procedure: The substrates N-succinyl-Ala-Ala-Pro-Phe-p-nitroaniline (AAPFpNA), Nα—Benzoyl-L-arginine-4-nitroaniline hydrochloride (BApNA) and N-succinyl-[…] (AAApNA) are used in competitive binding reaction to determine the inhibitory activities against α-chymotrypsin, bovine trypsin, and porcine pancreatic elastase, respectively. Experiments for α-chymotrypsin and bovine trypsin inhibition were measured in 20 mM CaCl₂, 50 mM Tris-HCl buffer (pH 7.8), and that for porcine elastase inhibition was measured in 50 mM Tris-HCl buffer (pH 8.0). The concentration of the peptide was measured using optical density (OD) at 280 nm. The Michaelis constant (Kₘ) of the enzyme hydrolysis substrate is calculated from the initial rate of substrate hydrolysis at 405 nm. The absorbance value of the substrate was measured at 405 nm after complete hydrolysis. All data were processed using nonlinear regression.
(1) Added a total 190 μL of reaction buffer (20 mM CaCl₂ and 50 mM Tris-HCl, pH 7.8) along with different concentrations of anti-trypsin peptides (BTs) into the pre-cooled 96-well plate, followed by preheating at 37° C., and spined down at 500 rpm for 5 min. Next added 10 μL of 1 μM trypsin, incubated at 37° C., and then spined down at 500 rpm for 10 min. Finally, added 5 μL of 50 mM BApNA, and mixed by centrifugation at 500 rpm for 1 min. […] The experiment was performed in triplicate. The blank control only contained the reaction buffer and the substrate as the minimum absorption value (Min OD_{405 nm}). The negative control only contained the reaction buffer, the enzyme and the substrate as the maximum absorption value (Max OD_{405 nm}). […] (2) In the reaction system of 205 μL, the final concentrations of trypsin and BApNA were 50 nM and 1.22 mM, respectively. [0456] (3) Data statistics

[1] = molecular target: T1, porcine pancreatic elastase (porcine, UniProt P00772 27-266); experiment: elastase inhibition, AAApNA substrate, OD405
T1 construct: substrate AAApNA

[2] = molecular target: T1, porcine pancreatic elastase; experiment: elastase inhibition, Ki=IC50/(1+S/Km)
PCSK9 protein = molecular target: T2, PCSK9 protein (UniProt Q8NBP7 31-692, limits assumed); experiment: PCSK9-LDLR in vitro binding assay kit, OD450/540; peptide 50 µM, PCSK9 75 ng/mL; inhibition of PCSK9 binding to LDLR
T2 construct: Kit reagent; also called proprotein convertase subtilisin/kexin type 9

Sequence of bovine trypsin (P00760 24-246): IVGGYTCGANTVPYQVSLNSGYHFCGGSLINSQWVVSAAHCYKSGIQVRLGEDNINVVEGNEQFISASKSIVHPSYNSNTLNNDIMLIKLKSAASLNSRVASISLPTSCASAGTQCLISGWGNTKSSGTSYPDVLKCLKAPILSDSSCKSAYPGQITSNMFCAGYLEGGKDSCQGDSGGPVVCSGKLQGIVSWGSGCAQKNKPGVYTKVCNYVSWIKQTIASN
T1 sequence (P00772 27-266 limits assumed): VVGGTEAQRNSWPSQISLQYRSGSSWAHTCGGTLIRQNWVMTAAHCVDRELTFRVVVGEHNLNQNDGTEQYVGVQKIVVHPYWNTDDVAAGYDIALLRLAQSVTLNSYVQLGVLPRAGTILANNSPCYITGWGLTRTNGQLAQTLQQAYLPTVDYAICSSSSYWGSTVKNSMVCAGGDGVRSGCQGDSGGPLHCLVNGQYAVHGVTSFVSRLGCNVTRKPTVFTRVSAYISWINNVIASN

CWTKSIPPKPC (disulfide 1-11 (inferred)) [BT36] showed an IC50 (bovine trypsin) of 4650 nM and a Ki (bovine trypsin) of 990 nM.

CGRATKSIPPIAFGC (disulfide 1-15 (inferred)) [BT32] gave an IC50 (bovine trypsin) of 1540 nM and a Ki (bovine trypsin) of 330 nM.

With ICTASIP[Hyp]ICQ (disulfide 2-10 (inferred), disulfide bond between the two Cys) [EC48] the IC50 [1] was 550 nM and the Ki [2] was 160 nM.

Work on CGRATKS[Nle]PPICF (disulfide 1-12 (inferred)) [BT28] yielded an IC50 (bovine trypsin) of 290 nM and a Ki (bovine trypsin) of 60 nM.

Binder CGAKGTKSIPPICFPD (disulfide 1-13 (inferred)) [BT2] has an IC50 (bovine trypsin) of 3030 nM and a Ki (bovine trypsin) of 650 nM.

For CGAKATKSIPPICFPD (disulfide 1-13 (inferred)) [BT3], the IC50 (bovine trypsin) was 680 nM and the Ki (bovine trypsin) was 140 nM.

CGRATKSLPPACF (disulfide 1-12 (inferred)) [BT14] showed an IC50 (bovine trypsin) of 1650 nM and a Ki (bovine trypsin) of 350 nM.

MCTASMPPQCH (disulfide 2-10 (inferred), disulfide bond between the two Cys) [EC26] showed an IC50 [1] of 23900 nM and a Ki [2] of 6840 nM.

With CGRATKSIPPIAFC (disulfide 1-14 (inferred)) [BT11] the IC50 (bovine trypsin) was 2200 nM and the Ki (bovine trypsin) was 470 nM.

[hCys]GRATKSIPPIAFG[hCys] (disulfide 1-15) [BT33] gave an IC50 (bovine trypsin) of 5570 nM and a Ki (bovine trypsin) of 1190 nM.

[hCys]GRATKSIPPIAF[hCys] (disulfide 1-14) [BT29] gave an IC50 (bovine trypsin) of 10600 nM and a Ki (bovine trypsin) of 2260 nM.

Work on CGRATKSIPPQCY (disulfide 1-12 (inferred)) [BT12] yielded an IC50 (bovine trypsin) of 8460 nM and a Ki (bovine trypsin) of 1800 nM.

In the case of ICTASYPPQCR (disulfide 2-10 (inferred), disulfide bond between the two Cys) [EC27], the IC50 [1] is reported as 8530 nM and the Ki [2] is reported as 2440 nM.

GTCTRSIPPICNPN (disulfide 3-11 (inferred)) [BT23] showed an IC50 (bovine trypsin) of 1820 nM and a Ki (bovine trypsin) of 390 nM.

Work on CGLATLSIPPICQ (disulfide 1-12 (inferred), disulfide bond between the two Cys) [EC7] yielded an IC50 [1] of 33700 nM and a Ki [2] of 9620 nM.

For CAIATASIPPICQ (disulfide 1-12 (inferred), disulfide bond between the two Cys) [EC45], the IC50 [1] was 47000 nM and the Ki [2] was 13400 nM.

Binder CGILTASIPPICQ (disulfide 1-12 (inferred), disulfide bond between the two Cys) [EC33] has an IC50 [1] of 26500 nM and a Ki [2] of 7580 nM.

B1: PCSK9_4 (peptide)
peptide: WEEALDWVCGRATKSIPPICFTVFTS
modifications: disulfide 9-20 (inferred)
notes: A disulfide bond joins the two Cys of the scaffold
In the case of B1, the “Inhibitory rate (%)” value (PCSK9 protein) is reported as 41.4%.

Binder LCTASIPPICQ (disulfide 2-10 (inferred), disulfide bond between the two Cys) [EC12] has an IC50 [1] of 400 nM and a Ki [2] of 110 nM.

In the case of LCTASIPPQCQ (disulfide 2-10 (inferred), disulfide bond between the two Cys) [EC18], the IC50 [1] is reported as 960 nM and the Ki [2] is reported as 270 nM.

For FCTASIPPICQ (disulfide 2-10 (inferred), disulfide bond between the two Cys) [EC24], the IC50 [1] was 2230 nM and the Ki [2] was 640 nM.

Binder LCTASNPPICQ (disulfide 2-10 (inferred), disulfide bond between the two Cys) [EC25] has an IC50 [1] of 1050 nM and a Ki [2] of 300 nM.

In the case of LCTASIPPICR (disulfide 2-10 (inferred), disulfide bond between the two Cys) [EC21], the IC50 [1] is reported as 15300 nM and the Ki [2] is reported as 4370 nM.

With ICTASIPPQCQ (disulfide 2-10 (inferred), disulfide bond between the two Cys) [EC19] the IC50 [1] was 1140 nM and the Ki [2] was 330 nM.

Work on LCTLSIPPQCY (disulfide 2-10 (inferred), disulfide bond between the two Cys) [EC2] yielded an IC50 [1] of 3190 nM and a Ki [2] of 910 nM.

Work on YCTASIPPICQ (disulfide 2-10 (inferred), disulfide bond between the two Cys) [EC29] yielded an IC50 [1] of 920 nM and a Ki [2] of 260 nM.

In the case of YCTASIPPQCY (disulfide 2-10 (inferred), disulfide bond between the two Cys) [EC14], the IC50 [1] is reported as 7140 nM and the Ki [2] is reported as 2040 nM.

With ICTASIPPICQ (disulfide 2-10 (inferred), disulfide bond between the two Cys) [EC23] the IC50 [1] was 250 nM and the Ki [2] was 70 nM.

VCTASIPPICQ (disulfide 2-10 (inferred), disulfide bond between the two Cys) [EC22] gave an IC50 [1] of 400 nM and a Ki [2] of 110 nM.

LCTASIPPQCY (disulfide 2-10 (inferred), disulfide bond between the two Cys) [EC1] showed an IC50 [1] of 1170 nM and a Ki [2] of 330 nM.

B2: PCSK9_2 (peptide)
peptide: TVFTSWEEALDWVCGRATKSIPPICF
modifications: disulfide 14-25 (inferred)
notes: Hybrid of the Pep2-8 analogue with the anti-trypsin scaffold BT9; A disulfide bond joins the two Cys of the scaffold
In the case of B2, the “Inhibitory rate (%)” value (PCSK9 protein) is reported as 89.9%.

B3: PCSK9_3 (peptide)
peptide: CGRATKSIPPICFGTVFTSWEEALDWV
modifications: disulfide 1-12 (inferred)
notes: Hybrid with the anti-trypsin scaffold BT9; A disulfide bond joins the two Cys of the scaffold
With B3 the “Inhibitory rate (%)” value (PCSK9 protein) was 89.9%.

CGI[Nle]TASIPPICQ (disulfide 1-12 (inferred), disulfide bond between the two Cys) [EC32] was tested, and the IC50 [1] was 21400 nM and the Ki [2] was 6110 nM.

With QGADTPPVGGLCTASIPPQCY (disulfide 12-20 (inferred), disulfide bond between the two Cys) [EC49] the IC50 [1] was 990 nM and the Ki [2] was 280 nM.

B4: EC50 (peptide)
peptide: SNGNAVEDGGLCTASIPPQCY
modifications: disulfide 12-20 (inferred)
notes: disulfide bond between the two Cys; peptide name, not a potency value
Work on B4 yielded an IC50 [1] of 970 nM and a Ki [2] of 280 nM.

Work on CGRATKSIPPIAC (disulfide 1-13 (inferred)) [BT13] yielded an IC50 (bovine trypsin) of 31500 nM and a Ki (bovine trypsin) of 6700 nM.

ICTASI[Hyp]PICQ (disulfide 2-10 (inferred), disulfide bond between the two Cys) [EC47] showed an IC50 [1] of 400 nM and a Ki [2] of 110 nM.
